Target: epidermal growth factor receptor (Homo sapiens (Human)) (UniProt P00533)

TGF-alpha - PE40 AB (ligand)
A431 CELL KILLING EC50 pM: 47 pM

Reference: patent US5621078
